Results on one substance are retold here after publication PMC3769240.

The target in this test is Non-structural NS1 protein of human respiratory syncytial virus (hRSV) strain A (human respiratory syncytial virus strain A) (UniProt P0DOE9). Nature of the test: dynamic light scattering; NS1SOs made by heat (10 minutes at 70°C in Tris 10 mM pH 8, DTT 1 mM); measured at 20°C.

In the case of “Non-structural NS1 protein of human respiratory syncytial virus (hRSV) strain A (from UniProt P0DOE9 1-139) (natural protein)”, the stoichiometry N (NS1 monomers per molecule of oligomer) was determined as 149.
